Measured values published in patent US10472401B2, “Peptides and combination of peptides for use in immunotherapy against ovarian cancer and other cancers” (immatics biotechnologies GmbH, priority 2015, dated 2019).

Biological target: HLA-A*02:01 (Homo sapiens, UniProt P04439, D140Y/D185E/D98H/E176V/E277Q/G131W/G231S/I119V/I121R/I166T/I218V/L300P/L318F/N151K/N90K/P208A/P217A/Q86G/Q94H/R138H/R169H/T345S)
Experiment: MHC binding assay (UV-ligand exchange, ELISA of stabilized MHC complexes)
Details: MHC class I binding score; binding to HLA-A*02:01 ranged by peptide exchange yield (UV-ligand exchange, ELISA)
Description: Candidate peptides for T cell based therapies according to the present invention were further tested for their MHC binding capacity (affinity). The individual peptide-MHC complexes were produced by UV-ligand exchange, where a UV-sensitive peptide is cleaved upon UV-irradiation, and exchanged with the peptide of interest as analyzed. Only peptide candidates that can effectively bind and stabilize the peptide-receptive MHC molecules prevent dissociation of the MHC complexes. To determine the yield of the exchange reaction, an ELISA was performed based on the detection of the light chain (β2m) of stabilized MHC complexes. The assay was performed as generally described in Rodenko et al. (Rodenko et al., 2006).
96 well MAXISorp plates (NUNC) were coated over night with 2 ug/ml streptavidin in PBS at room temperature, washed 4× and blocked for 1h at 37° C. in 2% BSA containing blocking buffer. […] Peptide-MHC monomers of the UV-exchange reaction were diluted 100 fold in blocking buffer. Samples were incubated for 1h at 37° C., washed four times, incubated with 2 ug/ml HRP conjugated anti-82m for 1h at 37° C., washed again and detected with TMB solution that is stopped with […]. Absorption was measured at 450 nm. Candidate peptides that show a high exchange yield (preferably higher than 50%, most preferred higher than 75%) are generally preferred for a generation and production of antibodies or fragments thereof, and/or T cell receptors or fragments thereof, as they show sufficient avidity to the MHC molecules and prevent dissociation of the MHC complexes.

Peptide exchange	Substance
″+++″ (≥50% = +++)	20 (RMIEYFIDV; listed as Homo sapiens) [compound 20]
″++++″ (≥75% = ++++)	68 (SLMELPRGLFL; listed as Homo sapiens) [compound 68]
″+++″ (≥50% = +++)	550 (FLYDEIEAEVNL; listed as Homo sapiens) [compound 550]
″+++″ (≥50% = +++)	123 (NLWDLTDASVV; listed as Homo sapiens) [compound 123]
″++″ (≥20% = ++)	377 (FLLDSSASV; listed as Homo sapiens) [compound 377]
″+++″ (≥50% = +++)	239 (AAFAGKLLSV; listed as Homo sapiens) [compound 239]
″++++″ (≥75% = ++++)	168 (KILDADIQL; listed as Homo sapiens) [compound 168]
″++″ (≥20% = ++)	353 (YLFEMDSSL; listed as Homo sapiens) [compound 353]
″+″ (≥10% = +)	153 (FLIANVLYL; listed as Homo sapiens) [compound 153]
″+++″ (≥50% = +++)	306 (ALVNVQIPL; listed as Homo sapiens) [compound 306]
″++″ (≥20% = ++)	374 (FLLQQHLISA; listed as Homo sapiens) [compound 374]
″+++″ (≥50% = +++)	589 (KLYPQLPAEI; listed as Homo sapiens) [compound 589]
″+++″ (≥50% = +++)	301 (FLVEDLVDSL; listed as Homo sapiens) [compound 301]
″+++″ (≥50% = +++)	72 (SLLELDGINL; listed as Homo sapiens) [compound 72]
″+++″ (≥50% = +++)	30 (LILDWVPYI; listed as Homo sapiens) [compound 30]
″++++″ (≥75% = ++++)	348 (ILLDVKTRL; listed as Homo sapiens) [compound 348]
″++″ (≥20% = ++)	93 (LLQAIKLYL; listed as Homo sapiens) [compound 93]
″++″ (≥20% = ++)	18 (YLVAKLVEV; listed as Homo sapiens) [compound 18]
″++″ (≥20% = ++)	227 (ALMNTLLYL; listed as Homo sapiens) [compound 227]
″+++″ (≥50% = +++)	495 (FIFSEKPVFV; listed as Homo sapiens) [compound 495]

Peptide exchange	Substance
″++″ (≥20% = ++)	133 (KVLSNIHTV; listed as Homo sapiens) [compound 133]
″+++″ (≥50% = +++)	596 (ALLDQTKTLAESAL; listed as Homo sapiens) [compound 596]
″++″ (≥20% = ++)	258 (ELAERVPAI; listed as Homo sapiens) [compound 258]
″++″ (≥20% = ++)	94 (YLIDIKTIAI; listed as Homo sapiens) [compound 94]
″+++″ (≥50% = +++)	90 (TLLQIIETV; listed as Homo sapiens) [compound 90]
″++″ (≥20% = ++)	221 (ALYEEGLLL; listed as Homo sapiens) [compound 221]
″+++″ (≥50% = +++)	567 (SLLPLDDIVRV; listed as Homo sapiens) [compound 567]
″++++″ (≥75% = ++++)	289 (VLLEIEDLQV; listed as Homo sapiens) [compound 289]
″+++″ (≥50% = +++)	521 (MLLTKLPTI; listed as Homo sapiens) [compound 521]
″+++″ (≥50% = +++)	446 (QLIPALAKV; listed as Homo sapiens) [compound 446]
″+++″ (≥50% = +++)	271 (LVYPLELYPA; listed as Homo sapiens) [compound 271]
″++″ (≥20% = ++)	234 (ALMEDTGRQML; listed as Homo sapiens) [compound 234]
″+++″ (≥50% = +++)	480 (ALLEDSCHYL; listed as Homo sapiens) [compound 480]
″++″ (≥20% = ++)	333 (FLPDANSSV; listed as Homo sapiens) [compound 333]
″+++″ (≥50% = +++)	173 (LLDSASAGLYL; listed as Homo sapiens) [compound 173]
″++++″ (≥75% = ++++)	339 (GLWEIENNPTVKA; listed as Homo sapiens) [compound 339]
″+++″ (≥50% = +++)	12 (SLWPDPMEV; listed as Homo sapiens) [compound 12]
″+++″ (≥50% = +++)	49 (YLPAVFEEV; listed as Homo sapiens) [compound 49]
″+++″ (≥50% = +++)	531 (YTLPIASSIRL; listed as Homo sapiens) [compound 531]
″+++″ (≥50% = +++)	437 (SMAPGLVIQAV; listed as Homo sapiens) [compound 437]

Peptide exchange	Substance
″++″ (≥20% = ++)	146 (SLATAGDGLIEL; listed as Homo sapiens) [compound 146]
″+++″ (≥50% = +++)	316 (ILLERLWYV; listed as Homo sapiens) [compound 316]
″+++″ (≥50% = +++)	144 (YIMEPSIFNTL; listed as Homo sapiens) [compound 144]
″++″ (≥20% = ++)	32 (KLDDLTQDLTV; listed as Homo sapiens) [compound 32]
″+++″ (≥50% = +++)	546 (VMIAGKVAVV; listed as Homo sapiens) [compound 546]
″+++″ (≥50% = +++)	280 (VLPDPEVLEAV; listed as Homo sapiens) [compound 280]
″+++″ (≥50% = +++)	595 (VLLSIYPRV; listed as Homo sapiens) [compound 595]
″+++″ (≥50% = +++)	539 (ALFDAQAQV; listed as Homo sapiens) [compound 539]
″+++″ (≥50% = +++)	17 (GLLPGDRLVSV; listed as Homo sapiens) [compound 17]
″+++″ (≥50% = +++)	194 (ALPLFVITV; listed as Homo sapiens) [compound 194]
″+++″ (≥50% = +++)	216 (NLWEDPYYL; listed as Homo sapiens) [compound 216]
″++″ (≥20% = ++)	559 (VTVPPGPSL; listed as Homo sapiens) [compound 559]
″+++″ (≥50% = +++)	22 (IMEENPGIFAV; listed as Homo sapiens) [compound 22]
″+++″ (≥50% = +++)	463 (SLVESHLSDQLTL; listed as Homo sapiens) [compound 463]
″+++″ (≥50% = +++)	69 (FQLDPSSGVLVTV; listed as Homo sapiens) [compound 69]
″+++″ (≥50% = +++)	45 (SLWQDIPDV; listed as Homo sapiens) [compound 45]
″++″ (≥20% = ++)	265 (LLFGGTKTV; listed as Homo sapiens) [compound 265]
″+++″ (≥50% = +++)	284 (ILLSQTTGV; listed as Homo sapiens) [compound 284]
